Measurements: paper PMC9814790
Where no end group is shown, it is not given here. Me3 = trimethyl (trimethylated lysine, Kme3)

Legend:
Assay in all cases: ITC; H3K4me3 peptide (380 uM) titrated to KDM5A PHD3 fingers (28 uM); for AUX WT-KDM5A 190 uM peptide and 21 uM protein; 20 mM TRIS-HCl pH 7.5, 50 mM NaCl, 1 mM DTT; 19 injections; one set of sites model; 7-9 repeats (AUX WT in replicate)
[1] = biological target: KDM5A PHD3 finger with 5,6-difluorotryptophan at Trp18 and Trp28 (Homo sapiens) (UniProt P29375)
[2] = biological target: KDM5A PHD3 finger with 5-fluorotryptophan at Trp18 and Trp28 (Homo sapiens) (UniProt P29375)
[3] = biological target: KDM5A PHD3 finger with 6-fluorotryptophan at Trp18 and Trp28 (Homo sapiens) (UniProt P29375)
[4] = biological target: wild-type KDM5A PHD3 finger expressed in E. coli Rosetta BL21 (DE3)pLysS (Homo sapiens) (UniProt P29375)
[5] = biological target: wild-type KDM5A PHD3 finger expressed in the auxotrophic E. coli Castellani and Chalmers strain (Homo sapiens) (UniProt P29375)

- Kd [1]: 70 nM
- dH [1]: -11.7 kcal/mol
- Kd [2]: 49 nM
- dH [2]: -10.9 kcal/mol
- Kd [3]: 57 nM
- dH [3]: -12.1 kcal/mol
- Kd [4]: 54 nM
- dH [4]: -11.6 kcal/mol
- Kd [5]: 48 nM
- dH [5]: -11.9 kcal/mol
Binder: ARTK(Me3)QTARKS [H3K4me3 histone peptide (ARTKme3QTARKS)]
